Assay [1] concerns the target T1, AAV2 capsid (adeno-associated virus serotype 2, UniProt P03135 1-735; P03135 1-598; P03135 1-533).
T1 construct: Whole assembled capsid, VP1:VP2:VP3 about 1:1:10; AF594-labelled in the library screen; GFP transgene in the lysate runs; a spherical cap of collated PDB structures in the docking; also called adeno-associated virus serotype 2
As to the kind of experiment: bind-and-elute chromatography, pure AAV2, non-competitive mode, pH 7.0; AAV titer by ELISA. A general note: In an ELISA, binding on a coated surface is turned into a signal by an enzyme label.

In a further assay the target is AAV9 capsid (adeno-associated virus serotype 9). As to the kind of experiment: bind-and-elute chromatography, pure AAV9; bound at pH 7.0, eluted with 1 M MgCl2 pH 6.0; ELISA.
Assay [2] deals with T1, AAV2 capsid. As to the kind of experiment: dynamic binding capacity at 10% breakthrough; AAV2 in HEK293 lysate, 3.2e11 vp/mL, PBS pH 7.4, residence time 3 min.
The target in assay [3] is T1, AAV2 capsid. The assay is described as follows: bind-and-elute chromatography, pure AAV2; bound at pH 7.0, eluted with 1 M MgCl2 pH 6.0; ELISA.

Where no end group is shown, it is not given here. Toyopearl AF‑Amino‑650M resin = chromatographic resin to which the peptide C-terminus is conjugated

B1: FFNFFKG-Toyopearl resin (peptide)
peptide: FFNFFKG-{Toyopearl AF‑Amino‑650M resin}
notes: Peptide immobilised on chromatographic resin; also called W10; FFNFFK-Toyopearl
Consider B1, for which the “loss (AAV titer in flow-through and wash vs. load)” value with AAV2 capsid [1] is < 1.7%. Further, in the assay with AAV9 capsid, the “yield (AAV titer in elution fraction vs. load)” value amounted to 72.4%. The “DBC10% (vp AAV per mL of resin)” value with AAV2 capsid [2] was 1.4e+13 vp AAV per mL of resin.

B2: IWWHIAKFG-Toyopearl resin (peptide)
peptide: IWWHIAKFG-{Toyopearl AF‑Amino‑650M resin}
notes: Peptide immobilised on chromatographic resin; also called W3
Turning to B2, the “loss (AAV titer in flow-through and wash vs. load)” value with AAV2 capsid [1] was < 1.7%. The “yield (AAV titer in elution fraction vs. load)” value in the assay with AAV2 capsid [3] was determined as 54.9%; with AAV9 capsid it was 61.7%. Besides, the “DBC10% (vp AAV per mL of resin)” value with AAV2 capsid [2] is 9.53e+12 vp AAV per mL of resin.

B3: FWWAAFFKG-Toyopearl resin (peptide)
peptide: FWWAAFFKG-{Toyopearl AF‑Amino‑650M resin}
notes: Peptide immobilised on chromatographic resin; also called W5
As for B3, the “loss (AAV titer in flow-through and wash vs. load)” value with AAV2 capsid [1] is < 1.7%. Further, the figures for the “yield (AAV titer in elution fraction vs. load)” value with AAV2 capsid [3] and in the assay with AAV9 capsid were 44.8% and 53.7%, respectively.

B4: FNHFFIG-Toyopearl resin (peptide)
peptide: FNHFFIG-{Toyopearl AF‑Amino‑650M resin}
notes: Peptide immobilised on chromatographic resin; also called W11
For B4, the “loss (AAV titer in flow-through and wash vs. load)” value with AAV2 capsid [1] was < 1.7%.

B5: IKIFFFFSG-Toyopearl resin (peptide)
peptide: IKIFFFFSG-{Toyopearl AF‑Amino‑650M resin}
notes: Peptide immobilised on chromatographic resin; also called W7
For the molecule B5, the “loss (AAV titer in flow-through and wash vs. load)” value with AAV2 capsid [1] was < 1.7%. In the assay with AAV2 capsid [2], the “DBC10% (vp AAV per mL of resin)” value was 1.02e+13 vp AAV per mL of resin.

B6: KWWIWAG-Toyopearl resin (peptide)
peptide: KWWIWAG-{Toyopearl AF‑Amino‑650M resin}
notes: Peptide immobilised on chromatographic resin; also called W8
For the molecule B6, the “loss (AAV titer in flow-through and wash vs. load)” value with AAV2 capsid [1] is < 1.7%. Further, the “yield (AAV titer in elution fraction vs. load)” value with AAV9 capsid is 57.2%.

B7: WKAHNKG-Toyopearl resin (peptide)
peptide: WKAHNKG-{Toyopearl AF‑Amino‑650M resin}
notes: Peptide immobilised on chromatographic resin; also called W2
Consider B7, for which, in the assay with AAV2 capsid [1], the “loss (AAV titer in flow-through and wash vs. load)” value was < 1.7%. Also, the “yield (AAV titer in elution fraction vs. load)” value in the assay with AAV2 capsid [3] came out at 79.8%.

B8: KFNHWFG-Toyopearl resin (peptide)
peptide: KFNHWFG-{Toyopearl AF‑Amino‑650M resin}
notes: Peptide immobilised on chromatographic resin; also called W1; KFNHWF-Toyopearl
B8: in the assay with AAV2 capsid [1], the “loss (AAV titer in flow-through and wash vs. load)” value was < 1.7%. The “yield (AAV titer in elution fraction vs. load)” value with AAV2 capsid [3] worked out at 45%. The “DBC10% (vp AAV per mL of resin)” value with AAV2 capsid [2] is 1.33e+13 vp AAV per mL of resin.

B9: FWNWHHFKG-Toyopearl resin (peptide)
peptide: FWNWHHFKG-{Toyopearl AF‑Amino‑650M resin}
notes: Peptide immobilised on chromatographic resin; also called W4
Consider B9, for which, in the assay with AAV2 capsid [1], the “loss (AAV titer in flow-through and wash vs. load)” value was < 1.7%. In the assay with AAV9 capsid, the “yield (AAV titer in elution fraction vs. load)” value worked out at 43.9%. Also, in the assay with AAV2 capsid [2], the “DBC10% (vp AAV per mL of resin)” value is 8.75e+12 vp AAV per mL of resin.

B10: IAFKKISIG-Toyopearl resin (peptide)
peptide: IAFKKISIG-{Toyopearl AF‑Amino‑650M resin}
notes: Peptide immobilised on chromatographic resin; also called W6
B10: in the assay with AAV2 capsid [1], the “loss (AAV titer in flow-through and wash vs. load)” value is < 1.7%.

B11: WWIKISG-Toyopearl resin (peptide)
peptide: WWIKISG-{Toyopearl AF‑Amino‑650M resin}
notes: Peptide immobilised on chromatographic resin; also called W9
For the molecule B11, the “loss (AAV titer in flow-through and wash vs. load)” value with AAV2 capsid [1] was < 1.7%.

(Values after US20260226503A1 (NORTH CAROLINA STATE UNIVERSITY, published 2026).)
